{"source": "the DeepSol protein solubility set"}
{"assay": "soluble on expression in E. coli; label from the status in PepcDB or PDB records"}
{"sequence": "MSFLSIPINEKSLSFIKNNFQAQIQALEQFYPIIKNALNLGLNPSSIKFGGGTALSMYYFQHRLSFDMDLFVNDAQCLGFFSPKLWIDNCSHFDSTRYIDQHNHIGVTNKDNIKIDVLVDYASNEGYVDNSKKIFAFDIYIESLENIIAKKITFRKTDNKTRDIFDIAVALHNDNNLFDKLLSSQKITKQDLLTLQNSLQELDKKRYSIEIDMVEPISHYKDLSLSAYDFLIDKIDQIKTATYSNSHDNADDLDNSNEYTPTPKRRR", "soluble on expression in E. coli": "not soluble"}
{"sequence": "MSFRETFLNNKFKFACRDSFLIEYYLEECYMSKKIINVVAAAIEKDGKIFCAQRPEGKSLGGYWEFPGGKLKEGESPEEALIREIYEELNSKIEIISFVNEASYDYDFGTVVMKTFHAKLVCGNLDLLEHQDSVWLEPSRLKTLNWAPVDRPAVELLSKEGHHHHHH", "soluble on expression in E. coli": "soluble"}
{"sequence": "MSFRIEEKIVLTASDMARLQADLQARGMVPLYPARLIRSVYFDTSGLQMFSDSEEGVLPRKKVRLRRYPEQADAGAVLETKISSVEGRFKTALPVAPETERRLLRQGHFDRDYGTLQAMVAVSYRRAYYSLDGLRITFDRDIAYARPDGQTARREAWTVCELKAPAEAPLDALHHILPVPRRRFSKFCNGVSAVIARALEHHHHHH", "soluble on expression in E. coli": "not soluble"}
{"sequence": "MSGDRDDPRYPYPKDDAELRRRLTPMQYEVTQHAATEPPFTGEYTDTEDAGIYHCVVCGTALFESGAKYHSGCGWPSYFKPIDGEVIDEKMDYTHGMTRVEVRCNQCGAHLGHVFEDGPRDKTGLRYCINSAALNFEAKPERK", "soluble on expression in E. coli": "not soluble"}
{"sequence": "MSGGSDQVKNMIYINGNRRGHCFITSGITFKEFASNIPSPLHQVLLLKHNFEWTDFHYHTLFEYVEEENIHKLIQAEIDEFDEFCWVDFDDASDLDELEPKEIAELLYLAHKKEPLARTFFPLLKNRFVYFSHDDGWYNKVYYRRIADFVGMLSKVIPYKLGAFGKKRFSFFQKSKIFPAISKELIMGLIPLMEDGLYIDLAGKIESRRGLEIPVYVVGSYESTDEVLDNIDELKEEATETGWLIFDKKEQEWQWVVD", "soluble on expression in E. coli": "not soluble"}
{"sequence": "MSGIGKRELIELYDKLLQFYGKQNWWPVDLEYHKTHGSDPREEVIIGAILTQNTSWKNVEKALENLKREKALNLKAIKEIPTEKLMELIKPAGFYRQKSLYLKEFANKFPSISHLKNVKREDLLKVKGIGKETADAILLYALDRLEFVVDAYTKRLLERLWNIKGSYEEIKRLFEKNLPKDLEIYREFHALIDIHAKEFCKKKPLCEECPLREKCIKSCF", "soluble on expression in E. coli": "soluble"}
{"sequence": "MSGKEEFQTIKERAKRKLERDMGADLLAALNDPKTVEVMLNADGKVWHERLGEPMRYICDMRPSQSQAIIETVAGFHGKEVTRHSPILEGEFPLDGSRFAGQLPPVVAAPTFAIRKRAVAIFTLEQYVEAGIMTREQYEVIKSAVAAHRNILVIGGTGSGKTTLVNAIINEMVAFNPSERVVIIEDTGEIQCAAENAVQYHTSIDVSMTLLLKTTLRMRPDRILVGEVRGPEALDLLMAWNTGHEGGAATLHANNPKAGLSRLAMLISMHPDSPKPIEPLIGEAVHVVVHIARTPSGRRVQEILEVLGYENGQYITKTL", "soluble on expression in E. coli": "not soluble"}
{"sequence": "MSGQNNVVGVHYKVGRRIGEGSFGVIFEGTNLLNNQQVAIKFEPRRSDAPQLRDEYRTYKLLAGCTGIPNVYYFGQEGLHNVLVIDLLGPSLEDLLDLCGRKFSVKTVAMAAKQMLARVQSIHEKSLVYRDIKPDNFLIGRPNSKNANMIYVVDFGMVKFYRDPVTKQHIPYREKKNLSGTARYMSINTHLGREQSRRDDLEALGHVFMYFLRGSLPWQGLKAATNKQKYERIGEKKQSTPLRELCAGFPEEFYKYMHYARNLAFDATPDYDYLQGLFSKVLERLNTTEDENFDWNLL", "soluble on expression in E. coli": "soluble"}
{"sequence": "MSGVSLGRGQNANAAYLDNIKELGFKLVRRPTGGGALLHPEDNEITYSVVLSASNTIAKLSVDESAVEIAKGILYTLQILGENVDIRGLGDMKKHDLCYLRSGSSDVIVAGRKISGSAQVRDDKALLQHGTLLLRFEPEI", "soluble on expression in E. coli": "soluble"}
{"sequence": "MSGVTAIEIPQWIQDNQEDFVPPVCNKCMFSDQLKVFYVGGPNQRKDFHLEEGEEFFFQRKGDMVLKVIEKGQVRDLVIKQGEMFMLPARVEHSPQRFSNSIGLVVERERKNTEFDCVRFLVGSSNITLFERWFYLTDVVKDLPPLIKEFYGSNEFKTGKPGKGTFACNAPYEARWTDLPVPINRKEFIYDHISEVKNGPVRIYGAPEYKTEVMLLGEGSYDLESGTVELLIWLQENTFAVVEESGFTYAMKSETMVRIKPNTKCLLNVKGGFAITIRMPA", "soluble on expression in E. coli": "not soluble"}
{"sequence": "MSHGHSHDGAPCGGHHGDDGAGGSRPSVNDVQALVDQLRLAGVDVSNMPNIPTAPRDMDEARSKSFQFWSTQPVPQMDETVPADVNCAIEENIALDKVRAEPFSLPAGFRWSNVDLSDEEQLNELYNLLTRNYVEDDDSMFRFDYSADFLKWALQVPGFRPEWHCGVRADSNNRLLAFIGAVPQTVRVYDKTVNMVEINFLCVHKNLRSRRVAPVLIREITRRVNVTGIFQAAFTAGIVIPKPVSVCRYYHRSLNPRKLIDVRFSHLSAKMTMARTIKLYKLPEETATRNLREMKSTDVPQVFKLLTTSLKQYSLAPVYNSEEELAHALVPKKGVVYSYVAENQNGKITDFVSFYSLPSTVMGHTTHKTIYAAYLYYYVAGSVTPKQLINDSLILANREKFDVFNALDLMHNEKIFSDLKFGKGDGNLQYYLYNWKCADMKPSQIGLVLQ", "soluble on expression in E. coli": "not soluble"}
{"sequence": "MSHVELQPGFDFQQAGKEVLAIERECLAELDQYINQNFTLACEKMFWCKGKVVVMGMGKSGHIGRKMAATFASTGTPSFFVHPGEAAHGDLGMVTPQDVVIAISNSGESSEITALIPVLKRLHIPLICITGRPESSMARAADVHLCVKVAKEACPLGLAPTSSTTATLVMGDALAVALLKARGFTAEDFALSHPGGALGRKLLLRVNDIMHTGDEIPHVKKTASLRDALLEVTRKNLGMTVICDDNMMIEGIFTDGDLRRVFDMGVDVRQLSIADVMTPGGIRVRPGILAVEALNLMQSRHITSVMVADGDHLLGVLHMHDLLRAGVV", "soluble on expression in E. coli": "soluble"}
{"sequence": "MSIEVRDCNGALLADGDNVSLIKDLKLKGSSTVLKRGTMIRGIRLTDSEDEIEGRTDKIKGLVLRTEFLKKAGS", "soluble on expression in E. coli": "soluble"}
{"sequence": "MSIFPTRDSRDLSSRRRSLIDWEFPQMALVPLDQVFDWAERSRQSLHDDIVNMHRNLFSLEPFTAMDNAFESVMKEMSAIQPREFHPELEYTQPGELDFLKDAYEVGKDGRLHFKVYFNVKNFKAEEITIKADKNKLVVRAQKSVACGDAAMSESVGRSIPLPPSVDRNHIQATITTDDVLVIEAPVNEPNYKAIKLSPEKGLAIQPSEVQERQLAVKNKEGLEIVTAEDGSKKIHLELKVDPHFAPKDVKVWAKGNKVYVHGVTGKEEKTENASHSEHREFYKAFVTPEVVDASKTQAEIVDGLMVVEAPLFK", "soluble on expression in E. coli": "soluble"}
{"sequence": "MSIKKSPVYNVIAVPVEKVQANDYNPNVVAPPEMRLLELSIWEDGFTMPCVCYYDKEKDVYILVDGFHRYSVLKTSKRIFQRENGMLPIVVIEKDLSNRMSSTIRHNRARGTHN", "soluble on expression in E. coli": "soluble"}
{"sequence": "MSILVTRPSPAGEELVSRLRTLGQVAWHFPLIEFSPGQQLPQLADQLAALGESDLLFALSQHAVAFAQSQLHQQDRKWPRLPDYFAIGRTTALALHTVSGQKILYPQDREISEVLLQLPELQNIAGKRALILRGNGGRELIGDTLTARGAEVTFCECYQRCAIHYDGAEEAMRWQAREVTMVVVTSGEMLQQLWSLIPQWYREHWLLHCRLLVVSERLAKLARELGWQDIKVADNADNDALLRALQLEHHHHHH", "soluble on expression in E. coli": "not soluble"}
{"sequence": "MSIMKTADRPHAMNRRQDAIFLEVFWARVRSIADEAAKLIVRTSFSTLSTEANDFTVVVTDSAGRCLTENSGSIPAFIGTLPATVQAVIAKYPHHTLRPGDVFITNDPWIGTGHLNDVCLVKPVFHLGKVVAFAATAGHVPDIGGRFRSVNAHELFEEGLQIPVIRLLDQGAPNEAILDMIRTNVRTPDQTAGDIWSQASAVELVARRLGEVLVEYALPGVDDIAEALFERGDRALRKAISALPDGQYRYAMQTDGFEQRLDLAVTVRIEGDAITCDFTGTSPQQPRAINCPLGYTTAMAVYAIKCLLVPDIPNSDGMLRAIRVEAPEHSLLNPARPAAVGGRASTGHYLPVLIFGAMHAVLPERVMAGAGSPLWSANISGTGADGLPMATVLFFNGGMGATCGKDGAAVMSWPSNISPTPVEVAERDIPLFFRYKRLRVDSGGPGQWRGGLGEEVCMVSRHDRPLSVVFLAERTREPAPGLGGGQAGVPGAVWINGVAVDVRERHLLNPGDELVMRTPGGGGFGPPGQRDPALADHDYRLGYSAAPGTARQS", "soluble on expression in E. coli": "not soluble"}
{"sequence": "MSIQKNTSTTSSSTLLDLIVIGGGINGAGIAADAAGRGLSVGLYEANDFASATSSASSKLIHGGLRYLEHYEFRLVSEALAEREVILRKAPHVALPMRFRLPHRPFLRPAWMIRCGLFLYDNLGKRTTLPGSKTVNLAKSGLLKPEMKTGFEYSDCWVDDARLVLLNVMAARENHAEVRNYCRVEKAHRENGVWHVTIHDVTTDQRFERKAKALVNAAGPWVKQFFDEGLEQTSPRNIRLIKGSHIVVPRIHNEPQAYILQNKDNRIVFMIPYLDKFSIIGTTDVEYKGDPREVAISDDEVDYLIDIVNQHFVHQLTREDVVWTYSGVRPLCDDESDSPQAITRDYTLELDAEYDQAPLLSVFGGKLTTYRKLGEAAMKKLEPYLPQMGGNWTANQTLPGGNFSCTREQLAKQIHAKYSWAPQALILRYVTQFGTQTWDLMEGASSEADLGQAFSEQAGGVYQREIDYLMNHEMALTDEDILWRRTKLGLYMNDEEKQALADYLKEKLQQKVVNLSQVSLEHHHHHH", "soluble on expression in E. coli": "soluble"}
{"sequence": "MSIQYEAPLADSYGVADSFPKDFGYGEEEGDIEDSPSPSDSKPRILLMGLRRSGKSSIQKVVFHKMSPNETLFLESTNKIYKDDISSSSFVNFQIWDFPGQVDFFDPTFDYELIFRGTGALIFVIDAQDDYVEALSRLHLTVSRAYRVNPEINFEVFIHKVDGLSDDHKIETQRDIHQRANDDLADASLEKLHLSFYLTSIYDHSIFEAFSKVVQKLIPQLPTLENLLNIFISNSGIEKAFLFDVVSKIYIATDSSPVDMQSYELCCDMIDVVIDVSCIYGLKEDGSGSAYDKESMAIIKLNNTTVLYLKEVTKFLALVCILRGESFERKGLIDYNFHCFRKAIHEVFEVGVSTSRTSNQPVGTPLMKTVALNGTPRSTV", "soluble on expression in E. coli": "soluble"}
{"sequence": "MSIRFARKADCAAIAEIYNHAVLYTAAIWNDQTVDADNRIAWFEARTLAGYPVLVSEENGVVTGYASFGDWRSFDGFRHTVEHSVYVHPDHQGKGLGRKLLSRLIDEARDCGKHVMVAGIESQNQASLHLHQSLGFVVTAQMPQVGTKFGRWLDLTFMQLQLDERTEPDAIG", "soluble on expression in E. coli": "soluble"}
{"sequence": "MSISDTVKRAREAFNSGKTRSLQFRIQQLEALQRMINENLKSISGALASDLGKNEWTSYYEEVAHVLEELDTTIKELPDWAEDEPVAKTRQTQQDDLYIHSEPLGVVLVIGAWNYPFNLTIQPMVGAVAAGNAVILKPSEVSGHMADLLATLIPQYMDQNLYLVVKGGVPETTELLKERFDHIMYTGSTAVGKIVMAAAAKHLTPVTLELGGKSPCYVDKDCDLDVACRRIAWGKFMNSGQTCVAPDYILCDPSIQNQIVEKLKKSLKDFYGEDAKQSRDYGRIINDRHFQRVKGLIDNQKVAHGGTWDQSSRYIAPTILVDVDPQSPVMQEEIFGPVMPIVCVRSLEEAIQFINQREKPLALYVFSNNEKVIKKMIAETSSGGVTANDVIVHITVPTLPFGGVGNSGMGAYHGKKSFETFSHRRSCLVKSLLNEEAHKARYPPSPAKMPRH", "soluble on expression in E. coli": "soluble"}
{"sequence": "MSIVMQLQDVAESTRLGPLSGEVRAGEILHLVGPNGAGKSTLLARMAGMTSGKGSIQFAGQPLEAWSATKLALHRAYLSQQQTPPFATPVWHYLTLHQHDKTRTELLNDVAGALALDDKLGRSTNQLSGGEWQRVRLAAVVLQITPQANPAGQLLLLDEPMNSLDVAQQSALDKILSALSQQGLAIVMSSHDLNHTLRHAHRAWLLKGGKMLASGRREEVLTPPNLAQAYGMNFRRLDIEGHRMLISTI", "soluble on expression in E. coli": "soluble"}
